# Assay results: paper PMC6359636, “Advances in Drug Delivery and Biomaterials: Facts and Vision” (Pharmaceutics, 2019)
# Tested on: blood clots
# Assay: Blood clot resolution in murine mesentery venules
# Type: in vivo
# Excerpt: Here, a novel thrombolytic nanoagent is realized by conjugating directly the clinical formulation of tPA to the porous structure of soft discoidal polymeric nanoconstructs (tPA-DPNs).
molecule,measurement,setting,value
"Tissue plasminogen activator (protein, UniProt P00750 36-562, looked up) Tissue-type plasminogen …: SYQVICRDEKTQMIYQQHQSWLRPVLRSNRVEYCWCNSGRAQCHSVPVKSCSEPRCFNGGTCQQALYFSDFVCQCPEGFAGKCCEIDTRATCYEDQGISYRGTWSTAESGAECTNWNSSALAQKPYSGRRPDAIRLGLGNHNYCRNPDRDSKPWCYVFKAGKYSSEFCSTPACSEGNSDCYFGNGSAYRGTHSLTESGASCLPWNSMILIGKVYTAQNPSAQALGLGKHNYCRNPDGDAKPWCHVLKNRRLTWEYCDVPSCSTCGLRQYSQPQFRIKGGLFADIASHPWQAAIFAKHRRSPGERFLCGGILISSCWILSAAHCFQERFPPHHLTVILGRTYRVVPGEEEQKFEVEKYIVHKEFDDDTYDNDIALLQLKSDSSRCAQESSVVRTVCLPPADLQLPDWTECELSGYGKHEALSPFYSERLKEAHVRLYPSSRCTSQHLLNRTVTDNMLCAGDTRSGGPQANLHDACQGDSGGPLVCLNDGRMTLVGIISWGLGCGQKDVPGVYTKVTNYLDWIRDNMRP",clots dissolved / vessels,"1.0 mg/kg, about 1 tenth of the clinical dose",16%
same,blood clots resolved / vessels recanalized,"intravenous, 2.5 mg/kg",about 40%
